One data set deals with T1, TfNCS (Thalictrum flavum, UniProt C3SBV6).
T1 construct: codon-optimised synthetic gene, E. coli BL21(DE3), Ni-NTA purified
The data set is described as follows: product by HPLC, coupled to TpCAR. The following applies: 1a formed in situ from 1 by TpCAR; co-substrate dopamine; HEPES pH 7.5, 30 °C. Type of data set: biochemical.

The target of the next data set is T2, RnCOMT (Rattus norvegicus, UniProt P22734).
T2 construct: gene Comt; codon-optimised synthetic gene, E. coli BL21(DE3), Ni-NTA purified
T2 sequence (P22734 1-264): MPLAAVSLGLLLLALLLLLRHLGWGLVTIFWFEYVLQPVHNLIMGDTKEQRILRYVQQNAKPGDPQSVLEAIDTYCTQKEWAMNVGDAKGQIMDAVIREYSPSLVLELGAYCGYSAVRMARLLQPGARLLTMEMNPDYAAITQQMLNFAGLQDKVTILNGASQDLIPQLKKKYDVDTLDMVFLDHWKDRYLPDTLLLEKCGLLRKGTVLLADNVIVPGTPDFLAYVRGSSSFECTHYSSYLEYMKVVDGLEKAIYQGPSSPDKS
The data set is described as follows: conversion by HPLC. In kind it is biochemical. The following applies: 4 mM SAM, 10 mM MgCl2, HEPES pH 7.5, 30 °C, 2 h.

A further data set concerns the target T3, CNMT (Coptis japonica, UniProt Q948P7).
T3 construct: codon-optimised synthetic gene, E. coli BL21(DE3), Ni-NTA purified
The data set is described as follows: product titer by HPLC, coupled to RnCOMT. Type of data set: biochemical. The following applies: SAM; (S)-1c formed in situ from 2 mM (S)-1b; HEPES pH 7.5, 30 °C, 4 h.

Data set [1] deals with COc1cc(CC[C@@H]2NCCc3cc(O)c(O)cc32)cc(O)c1OC. The data set is described as follows: initial rates by HPLC, Michaelis-Menten fit. Type of data set: biochemical, Gloriosa superba. The following applies: SAM as methyl donor, 200 mM potassium phosphate pH 7.5, 30 °C.

`COc1cc(CCC=O)cc(OC)c1OC` [1a]: on TfNCS, the “product by HPLC, coupled to TpCAR” value is listed as “(S)−1b was efficiently synthesized without the accumulation of intermediate 1a”.
Regarding `COc1cc(CC[C@@H]2NCCc3cc(O)c(O)cc32)cc(OC)c1OC` [(S)-1b], on RnCOMT, the “conversion by HPLC” value is “the enzymatic activity of RnCOMT towards (S)−1b was much better than that of GsOMT1”.
`COc1cc2c(cc1O)[C@H](CCc1cc(OC)c(OC)c(OC)c1)NCC2` [(S)-1c]: on CNMT, the “product titer by HPLC, coupled to RnCOMT” value is given as “CNMT showed a very weak catalytic activity towards (S)−1c”.
For GsOMT1 (Gloriosa superba), in data set [1], the Km came out at 630 ± 50 µM and the kcat stood at 4.56 ± 0.24 s⁻¹.
GsOMT1 (Gloriosa superba; V125Q): in data set [1], the Km amounted to 330 ± 20 µM and the kcat is 8.65 ± 0.26 s⁻¹.

As usually defined, the Km is the substrate concentration at which the rate is half of its maximum. What is called kcat is the maximal rate divided by the concentration of active sites.
